In PMC8726733 (mAbs, 2021):

What was measured:
[1] = molecular target: biotinylated avitag-labeled canine CTLA4 (dog, UniProt Q9XSI1, biotin (biotinylated avitag)); assay: ELISA
[2] = molecular target: feline CTLA4 of feline CD5+ leucocytes (Felis catus, endogenous; allele not …, UniProt Q9XSY7); assay: flow cytometry on cells

Chain of biotinylated avitag-labeled canine CTLA4 (Q9XSI1 36-161): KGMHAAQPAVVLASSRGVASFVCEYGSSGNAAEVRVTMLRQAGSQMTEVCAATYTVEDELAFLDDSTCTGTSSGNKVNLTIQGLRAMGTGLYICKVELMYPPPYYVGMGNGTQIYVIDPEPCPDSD

Row | Binder | binding result [1] | binding result [2]
1 | A1 soluble canine anti-cCTLA4 scFv (scFv, V domains shown) VH: EVQLVESGGDLVKPAGSLRLSCVASGFSFSSYAMNWVRQAPGKGLQWIAGINSGGSSTSHIDAIKGRFTISRDNAKNTLYLQMNSLRAEDTAVYYCAISNWAYWGQGTLVTVSS VL: QAVLNQPASVSGSLGQRVTISCTGSSSDIGKSYVAWYQQLPGTGPRTLINVDGNRASGVPDRFSVSRSGNTATLTISGLQAEDEADYHCSSWDWSLHTYVFGSGTQLTIL | binds | 
2 | A1mut2 fully canine IgGA (antibody, V domains shown) VH: EVQLVETGGDLVKPGGSLRLSCVASGFSFSSYAMNWVRQAPEKGLQLVGGINSGGSSTYYTDAVKGRFTISRDNAKNTVYLQMNSLRAEDTAVYYCAISNWAYWGQGTLVTVSS VL: QAVLNQPASVSGSLGQRVTISCTGSSSDIGKSYVAWYQQLPGTGPRTLINVDGNRASGVPDRFSVSRSGNTATLTISGLQAEDEADYHCSSWDWSLHTYVFGSGTQLTIL |  | binds
